Laboratory results taken from article PMC5461267, “Membrane Guanylate Cyclase catalytic Subdomain: Structure and Linkage with Calcium Sensors and Bicarbonate” (Frontiers in Molecular Neuroscience, 2017).
Changes are numbered by the printed parent chain. Names and notes keep the numbering of the source.

T1: ROS-GC1 (rod outer segment guanylate cyclase type 1), full-length recombinant (Bos taurus, UniProt P55203)
T1 construct: gene GUCY2D; full-length wild-type cDNA expressed in COS-7 cells; membrane fraction assayed; homodimer
T1 sequence (P55203 57-1110): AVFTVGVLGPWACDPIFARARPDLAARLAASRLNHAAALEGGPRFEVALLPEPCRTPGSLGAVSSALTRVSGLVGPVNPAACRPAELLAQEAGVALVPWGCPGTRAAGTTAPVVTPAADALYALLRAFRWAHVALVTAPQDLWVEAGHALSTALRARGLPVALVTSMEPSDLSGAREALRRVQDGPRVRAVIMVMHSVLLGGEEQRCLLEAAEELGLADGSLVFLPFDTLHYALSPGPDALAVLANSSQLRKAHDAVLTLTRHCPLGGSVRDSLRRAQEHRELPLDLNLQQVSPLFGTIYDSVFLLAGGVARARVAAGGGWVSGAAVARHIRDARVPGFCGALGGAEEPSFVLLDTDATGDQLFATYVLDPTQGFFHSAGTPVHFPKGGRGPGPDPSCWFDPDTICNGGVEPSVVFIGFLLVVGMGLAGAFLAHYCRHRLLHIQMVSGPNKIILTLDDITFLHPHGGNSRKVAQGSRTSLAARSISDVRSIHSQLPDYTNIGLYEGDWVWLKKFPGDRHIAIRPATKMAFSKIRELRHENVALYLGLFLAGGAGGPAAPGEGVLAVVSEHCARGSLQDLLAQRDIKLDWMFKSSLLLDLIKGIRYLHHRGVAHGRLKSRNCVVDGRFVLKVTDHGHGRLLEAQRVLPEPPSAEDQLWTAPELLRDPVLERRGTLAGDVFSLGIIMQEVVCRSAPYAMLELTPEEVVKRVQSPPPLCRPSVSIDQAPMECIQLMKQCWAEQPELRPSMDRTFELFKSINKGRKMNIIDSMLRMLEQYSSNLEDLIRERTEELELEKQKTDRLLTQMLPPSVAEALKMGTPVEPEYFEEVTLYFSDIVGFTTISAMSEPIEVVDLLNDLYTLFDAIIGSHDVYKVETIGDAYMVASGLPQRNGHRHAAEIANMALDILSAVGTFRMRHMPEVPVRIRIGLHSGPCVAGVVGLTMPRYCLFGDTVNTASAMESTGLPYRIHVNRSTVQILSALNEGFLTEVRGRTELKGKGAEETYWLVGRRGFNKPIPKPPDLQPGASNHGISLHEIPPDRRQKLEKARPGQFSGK

B1: ROS-GC1 (rod outer segment guanylate cyclase type 1), full-length recombinant (Bos taurus; A1013R) (protein)
chain: T1 sequence (P55203 57-1110) with A957R
notes: full-length wild-type cDNA expressed in COS-7 cells; membrane fraction assayed; homodimer
B2: ROS-GC1 (rod outer segment guanylate cyclase type 1), full-length recombinant (Bos taurus; A1013R/C1002A) (protein)
chain: T1 sequence (P55203 57-1110) with C946A, A957R
notes: as for B1
B3: ROS-GC1 (rod outer segment guanylate cyclase type 1), full-length recombinant (Bos taurus; A1013R/N1009A) (protein)
chain: T1 sequence (P55203 57-1110) with N953A, A957R
notes: as for B1
B4: ROS-GC1 (rod outer segment guanylate cyclase type 1), full-length recombinant (Bos taurus; A1013R/E930A) (protein)
chain: T1 sequence (P55203 57-1110) with E874A, A957R
notes: as for B1
B5: ROS-GC1 (rod outer segment guanylate cyclase type 1), full-length recombinant (Bos taurus; A1013R/D934A) (protein)
chain: T1 sequence (P55203 57-1110) with D878A, A957R
notes: as for B1
B6: ROS-GC1 (rod outer segment guanylate cyclase type 1), full-length recombinant (Bos taurus; A1013R/D890A) (protein)
chain: T1 sequence (P55203 57-1110) with D834A, A957R
notes: as for B1
B7: ROS-GC1 (rod outer segment guanylate cyclase type 1), full-length recombinant (Bos taurus; A1013R/R981A) (protein)
chain: T1 sequence (P55203 57-1110) with R925A, A957R
notes: as for B1

Assays:
[1] = target: T2, CCD (aa fragment 817-965) of ROS-GC1 (Bos taurus, UniProt P55203, A1013R); experiment: cyclic GMP radioimmunoassay, purified protein; assay type: biochemical; conditions: 1 mM GTP, 4 mM MgCl2, pH 7.5, 37 °C
T2 construct: gene GUCY2D; homodimer

[2] = target: T1, ROS-GC1 (rod outer segment guanylate cyclase type 1), full-length recombinant; experiment: cyclic GMP radioimmunoassay, COS cell membranes; Hill fit; assay type: biochemical; conditions: constant Mg2+, GTP 0-3 mM, pH 7.5, 37 °C; half-maximal concentration from Hill equation
[3] = target: T3, CCD/CTE (aa 817-1054) of ROS-GC1 (Bos taurus, UniProt P55203, A1013R); experiment: cyclic GMP radioimmunoassay, purified protein; assay type: biochemical; conditions: 1 mM GTP, 4 mM MgCl2, pH 7.5, 37 °C
T3 construct: gene GUCY2D; dimer

[4] = substrate: Nc1nc2c(ncn2[C@@H]2O[C@H](COP(=O)(O)OP(=O)(O)OP(=O)(O)O)[C@@H](O)[C@H]2O)c(=O)[nH]1; experiment: cyclic GMP radioimmunoassay, COS cell membranes; Hill fit; assay type: biochemical, Bos taurus; conditions: constant Mg2+, GTP 0-3 mM, pH 7.5, 37 °C, half-maximal concentration from Hill equation

T3 sequence (P55203 873-1110 A1013R): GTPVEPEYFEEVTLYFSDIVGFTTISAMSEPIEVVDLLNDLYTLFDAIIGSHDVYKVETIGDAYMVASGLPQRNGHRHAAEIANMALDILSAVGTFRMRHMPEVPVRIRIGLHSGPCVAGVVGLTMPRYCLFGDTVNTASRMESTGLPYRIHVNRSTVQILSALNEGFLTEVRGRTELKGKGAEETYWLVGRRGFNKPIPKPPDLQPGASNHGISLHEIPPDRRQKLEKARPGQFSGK
T2 sequence (P55203 873-1021 A1013R): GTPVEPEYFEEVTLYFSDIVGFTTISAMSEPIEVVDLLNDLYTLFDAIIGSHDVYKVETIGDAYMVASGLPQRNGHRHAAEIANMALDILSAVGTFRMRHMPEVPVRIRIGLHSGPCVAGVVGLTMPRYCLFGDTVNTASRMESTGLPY

Molecule	Km [4]	also measured
Nc1nc2c(ncn2[C@@H]2O[C@H](COP(=O)(O)OP(=O)(O)OP(=O)(O)O)[C@@H](O)[C@H]2O)c(=O)[nH]1 [GTP]	–	cyclic GMP radioimmunoassay, purified protein [1]: The isolated soluble CCD construct contained only a minimal basal specific catalytic activity; Km [2]: 500 ± 30 µM; cyclic GMP radioimmunoassay, purified protein [3]: constructs lacked the TMD, illustrated by the CCD–CTE and CCD
B1	450 ± 20 µM	–
B2	640 ± 20 µM	–
B3	490 ± 10 µM	–
B4	530 ± 30 µM	–
B5	480 ± 40 µM	–
B6	560 ± 30 µM	–
B7	520 ± 30 µM	–
